Laboratory results: the nanobody polyreactivity screen of Harvey et al. (2022)

test: yeast display, Sf9 membrane polyspecificity reagent, FACS + sequencing; frameworks hold sequencing errors
Procedure, shortened: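 Galactose-induced (36–48 hours) yeast carrying a synthetic nanobody display library were exposed to 10% biotinylated, detergent-solubilized Sf9 membrane reagent at 4 °C for 1 hour. FACS followed streptavidin microbead enrichment, using low and high (top ~1%) gates for expression (anti-HA) and reagent binding (streptavidin). Colony PCR, MiSeq 2 × 250 sequencing and CDR-length filtering followed. Labels for polyreactivity reflect the gate of origin.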

Row | Sequence | polyreactivity (PSR sort gate)
1 | QVQLVESGGGLVQAGGSLRLSCAASGFTFYTNVMGWYIQAPGKERELVAAINSGGSTNYADSVKGRFTISRDNAKNTVYLQMNSLKPEDTAVYYCNKRGTEIGYDYWGQGTQVTVLS | low polyreactivity
2 | QVQLVESGGGLVQAGGSLRLSCAASGFTFYTYAMGLYRQAPGKERELVAAITSSGGSTYYADSVKGRFTISRDNAKNTVYLQMKSLKPEDTAVYYCNAVSYYLGDDYWGQGTQVTVSS | high polyreactivity
3 | QVQLVESGGGLVQAGGSLRLSCAASGFTFYTYAMGWYRQAPGKERELVAAISGSGSRTYYADSVKGRFTISRDNAKNTVYLQMNSLKPEDTAVYYCNAGYGSGSLHREFNYWGQGTQVTVSS | low polyreactivity
4 | QVQLVESGGGLVQAGGSLRLSCAASGFTFYTYAMGWYRQAPGKERELVAAITGSGGRTYYADSVKGRFTISRDNAKTTVYLQMNSLKPEDTAVYYCAALYVYRPRTPYGYWGQGTQVTVSS | high polyreactivity
5 | QVQLVESGGGLVQAGGSLRLSCAASGFTFYTYAMGWYRQAPGKERELVATITGRTGSTYYADSVKGRFTISRDNAKNTVYLQMNSLKPEDTAVYYCAADWGKLHVTWFRVNYWGQGTQVTVSS | low polyreactivity
6 | QVQLVESGGGLVQAGGSLRLSCAASGFTFYTYDMGWYRQAPGKERALVAAITSGVSTNYADSVKGRFTISRDNAKNTVYLQMNSLKPEDTAVYYCNKDVRPAYRWYDYWGQDTQVTVSS | low polyreactivity
7 | QVQLVESGGGLVQAGGSLRLSCAASGFTFYTYFMGWYRPAPGKERELVAAITSGVSTNYADSVKGRFTISRDNAKNTVYLQMNSLKPEDTAVYYCNKDVRPAYRWYDYWGQDTQVTVSS | low polyreactivity
8 | QVQLVESGGGLVQAGGSLRLSCAASGFTFYTYTMGWYRQAPGKERELVAVISRSGGSTYYADSVKGRFTISRDNAKNTVYLQMNSLKPEDTAVYYCNAGYWRFIDSYDYWGQGTQVTVSS | high polyreactivity
9 | QVQLVESGGGLVQAGGSLRLSCAASGFTFYWTAMGWYRQAPGKERELVAAINGGDSTNYADSVKGRFTISRDNAKNTVYLQMNSLKPEDTAVYYCAKYYYTSIVGYDSWGQGTQVTVSS | low polyreactivity
10 | QVQLVESGGGLVQAGGSLRLSCAASGFTFYWYDMGWYRQAPGKERELVSTISTGGGTNYADSVKGRFTISRDNAKNTVYLQMNSLKPEDNAVYYCAADGSAGYQWGYDFEGDYWGQGTEVTVSS | high polyreactivity
11 | QVQLVESGGGLVQAGGSLRLSCAASGFTFYWYTMAWNRQAPGKERELVAAISRRGGSTSYADSVKGRFTISRDNAKNTVYLQMNSLKPDDTAVYYCAKTPGWTDYDYWGQGTQVTVSS | high polyreactivity
12 | QVQLVESGGGLVQAGGSLRLSCAASGFTFYWYTMGWYRPAPGKERELVATISGSGGRTYYADSVKGRFTISRDNAKNTVYLQMNSLKPEDSAVYYCNAGRPYKYGYWGQGTQVTVSS | high polyreactivity
13 | QVQLVESGGGLVQAGGSLRLSCAASGFTFYYNAMGCYRQAPGKERELVAIRFRGGNTYYADSVKGRFTISRDNAKNTVYLQMNSLKPEDTAVYYCNADDRGSTYVDFDYWGQGTQVTVSS | low polyreactivity
14 | QVQLVESGGGLVQAGGSLRLSCAASGFTFYYNAMGWYRQAPGKERELVASITRSGGRTYYADSVKGRFTISRDNAKNTVYLQMNSLKPEDTAVYYCARRYPGGYYWGQGTQVTVSS | high polyreactivity
15 | QVQLVESGGGLVQAGGSLRLSCAASGFTFYYYAMGWYRQAPGKERELVAAISKSGGSTYYADSVKGRFTISRDNAKNTVYLQMNSLKPEDTAVYYCARDKGSSGKGHGYWGQGTQVTVSS | high polyreactivity
16 | QVQLVESGGGLVQAGGSLRLSCAASGFTFYYYAMGWYRQAPGKERELVAAISSGGRTNYADSVKGRFTISRDNAKNTVYLQMNSLKPEDTAVYYCAAQYRNYFPYRVVRQGVGYWGQGTQVTVSS | high polyreactivity
17 | QVQLVESGGGLVQAGGSLRLSCAASGFTFYYYAMGWYRQAPGKERELVASISSRGGSTYYADSVKGRFTISRDNAKNTVYLQMNSLKPEDTAVYYCAARTRRYKFDYWGQGTQVTVSS | high polyreactivity
18 | QVQLVESGGGLVQAGGSLRLSCAASGFTFYYYTLGWYRQAPGKVRELVARITTRGTSTYYADSVKGRFRISRDTPKNTVYLPMNSLKPEDTAVYYCAAQVGRGYEVYAVYKYGYWGQGTQVTVSS | high polyreactivity
19 | QVQLVESGGGLVQAGGSLRLSCAASGFTFYYYTMGWYRQAPGKERELVAAITISGGSTYYADSVKGRFTISRDNAKNTVYLQMNSLKPEDSAVYYCNADYQWYLGGYDFWGQGTQVTVSS | high polyreactivity
20 | QVQLVESGGGLVQAGGSLRLSCAASGFTIARNTMGWYRPAPGKERELVAAISGGGSTNYADSVKGRFTISRDNAKYTVYLQMNSLKPEDTAVYYCNADSNSDNNDYDYWGQGTQVTVSS | low polyreactivity
21 | QVQLVESGGGLVQAGGSLRLSCAASGFTIDAYAMGWYRQAPGKERELVAAISDGGNTYYADSVKGRFTISRDNAKNTVYLQMNSLKPEDTAVYYCNVDWYSYWYYTYEKSSEWAMEYWGQGTQVTVSS | low polyreactivity

Row | Sequence | polyreactivity (PSR sort gate)
22 | QVQLVESGGGLVQAGGSLRLSCAASGFTIFSYAMGWYRQAPGKERELVAAISRRGGSTYYADSVKGRFTISRDNAKNTVYLQMNSLKPEDTAVYYCAAGPRWHTNGWAYDYWGQGTQVTVSS | high polyreactivity
23 | QVQLVESGGGLVQAGGSLRLSCAASGFTIGANNMGWYRQAPGKERELLAAISASGGSTYYADSVKGRFTISRDNAKNTVYLQMNSLKPEDTAVYYCAARRYPGRTATYYSWGQGTQVTVSS | high polyreactivity
24 | QVQLVESGGGLVQAGGSLRLSCAASGFTIKYYAMGWYRQAPGKEREFVAAISSSGGRTYYADSVKVRFTISRDYAKNTVYLQMNSLKPEDTAVYYCAAAWGTYGYHYDYLGQGTQVTVSS | low polyreactivity
25 | QVQLVESGGGLVQAGGSLRLSCAASGFTIPTYAMVWYRQAPGKERELVAAITRGGSTYYADSVKGRFTISRDNAKYTVYLQMNSLKPEDTAVYYCAADDPWYEEDYWGQGTQVTVSS | low polyreactivity
26 | QVQLVESGGGLVQAGGSLRLSCAASGFTISPYAMGWYRQAPGKERELVAAITRRSGSTYDADSVKGRFTISRDNAKNTVYLQMNSLKPEDTAVYYCNAKFYTAVYSYSLFNYWGQGTQVTVSS | high polyreactivity
27 | QVQLVESGGGLVQAGGSLRLSCAASGFTISRYNMGWYRQAPGKEREMVAAISGSGGSTYYADSVKGRFTISRDNAKNTVYLQMNSLKPEDTAVYYCNAVRNWYYTPWEMNYWGQGTQVTVSS | high polyreactivity
28 | QVQLVESGGGLVQAGGSLRLSCAASGFTITAYAMGWYRQAPGKERELVAAISYSGGRTYYADSVKGRFTISRDIAKNTVYLQMNSLKTEDTAVYYCYAVLAHYQSLVYWGQGSQVTVSS | high polyreactivity
29 | QVQLVESGGGLVQAGGSLRLSCAASGFTITIYAMGWYRQAPGKERELVATISGRAGRTYYADSVKGRFTISRDNAKNTVYLQMNSLKPEDTAVYYCNAGQWRYPGLYYYWGQGTQVTVSS | high polyreactivity
30 | QVQLVESGGGLVQAGGSLRLSCAASGFTITRYAMGWYRQAPGKERELVARITGRGGGTFYADSVKGRFTISRDNAKNTVYLQMNSLKPEDTAVYYCNTDYGSSYNYWGQGTQVTVSS | high polyreactivity
31 | QVQLVESGGGLVQAGGSLRLSCAASGFTIVPYAMGWYRQAPGKERELVAAITSGGSTYYADSVKGRFTISRDNAKNTVYLQMNSLKPEDTAVYYCNRGRYRRRYTYSQYDYWGQGTQVTVSS | high polyreactivity
32 | QVQLVESGGGLVQAGGSLRLSCAASGFTIYGYAMGGDRQAPGPERELVAAITSRGGSTYYADSVKGRFTISRDNAKNTVYLQMNSLKPEDTAVYYCSKASGIYLGSRYYDVPMDYWGQGTQVTVSS | high polyreactivity
33 | QVQLVESGGGLVQAGGSLRLSCAASGFTIYGYVMGWYRQAPGKVRELVAAISYSAGRTYYADSVKGRFTISRDNAKNTVYLQMNSLKPEDTAVYYCNAPSVGAAFDYCGQGTQVTVSS | high polyreactivity
34 | QVQLVESGGGLVQAGGSLRLSCAASGFTIYPYAMGWYRQAPGKERELVAAISQRGGRTSYADSVKGRFTISRDNAKNTVYLQMNSLKPEDTAVYYCAARFWATEGYWGQGTQVTVSS | high polyreactivity
35 | QVQLVESGGGLVQAGGSLRLSCAASGFTIYRYAMGWYRQAPGKERELVAAITSRGGSTYYADSVKGRFTISRDNAKNTVYLQMNSLKPEDTAVYYCAAAGYYPAYDYWGQGTQVTVSS | high polyreactivity
36 | QVQLVESGGGLVQAGGSLRLSCAASGFTLAFYGMGRSRQAPGKERELVAAISRSGGSTYYADSVKGRFTISRDNAKNTVYLQMNSLKPEDTAVYYCAAAFRAGDVYGYYWGQGTQVTVSS | high polyreactivity
37 | QVQLVESGGGLVQAGGSLRLSCAASGFTLARYAMGWYRQAPGKEREFVAAITNGGRTNYADSVKGRFTISRDNAKNTVYLQMNSLKPEDTAVYYCAARYRFGGIRRYNYWGQGTQVTVSS | high polyreactivity
38 | QVQLVESGGGLVQAGGSLRLSCAASGFTLAWNAMGWYRQAPGKERELVATISRSGSSTSYADSVKGRFTISRDTAKNTVYLQMNSLKPEDTAVYYCAADRYTVRMDYWGQGTQVTVSS | high polyreactivity
39 | QVQLVESGGGLVQAGGSLRLSCAASGFTLDKYAMGSNRQAPGTERELVAAINWSGGSTYYADSVKGRFTISRDNAKNTVYLQMNSLKPEDTAVYYCNAQAYRRRRYYYWGQGTQVTVSS | high polyreactivity
40 | QVQLVESGGGLVQAGGSLRLSCAASGFTLDVYVMGWYRPAPGKERELVAAIRDSDDDTSYADSVKGRFTISRDNAKNTVYLQMNSLKPEDTAVYYCAVDYPTQPWGYYLLMDYWGQGTQVTVSS | low polyreactivity
41 | QVQLVESGGGLVQAGGSLRLSCAASGFTLEDYTMGWYRQAPGKERELVARITSGGSTNYADSVKGRFTISRDNAKNTVYLQMKSLKPEDTAVYYCNARYAWINMDYWGQGTQVTVSS | low polyreactivity
